We go through 10 molecules from the FLAb antibody collection (doi:10.1101/2023.12.08.570889).

This experiment has as its target TSLP, Q969D9. As to the kind of experiment: Kd (SPR).

B1: unnamed (protein)
chain 1: QMQLVESGGGVVQPGRSLRLSCAASGFTFSTYAMHWVRQAPGKGLEWVAVIWYDGSNKHYADSVKGRFTITRDNSKNTLNLQMNSLRAEDTAVYYCARAPRYYWYYEAFDVWGQGTMVTVSS
chain 2: SYVLTQPPSVSVAPGQTARITCGGNNLGSKSVHWYQQKPGQAPVLVVYDDSDRPSWIPERFSGSNSGNTATLTISRGEAGDEADYYCQVWDSSSDHVVFGGGTKLTVL
Turning to B1, the Kd (as a rule, the constant that tells how readily two partners part at equilibrium) came out at 87.1 nM.

B2: unnamed (protein)
chain 1: QMQLVESGGGVVQPGRSLRLSCAASGFTFSTFAMHWVRQAPGKGLEWVAVIWYDGSNKHYADSVKGRFTITRDNSKNTLNLQMNSLRAEDTAVYYCARAPRYDDYYEAFDVWGQGTMVTVSS
chain 2: SYVLTQPPSVSVAPGQTARITCGGNNLGSKSVHWYQQKPGQAPVLVVYDDSDRPSWIPERFSGSNSGNTATLTISRGEAGDEADYYCQVWDSSSDHVVFGGGTKLTVL
As for B2, the equilibrium dissociation constant (Kd) is 92.5 nM.

B3: unnamed (protein)
chain 1: QMQLVESGGGVVQPGRSLRLSCAASGFTFSTYAMHWVRQAPGKGLEWVAVIWYDGSNKHYADSVKGRFTITRDNSKNTLNLQMNSLRAEDTAVYYCARSPRYYEYYEAFDVWGQGTMVTVSS
chain 2: SYVLTQPPSVSVAPGQTARITCGGNNLGSKSVHWYQQKPGQAPVLVVYDDSDRPSWIPERFSGSNSGNTATLTISRGEAGDEADYYCQVWDSSSDHVVFGGGTKLTVL
In the case of B3, the Kd amounted to 57 nM.

B4: unnamed (protein)
chain 1: QMQLVESGGGVVQPGRSLRLSCAASGFTFSTFAMHWVRQAPGKGLEWVAVIWYDGSNKHYADSVKGRFTITRDNSKNTLNLQMNSLRAEDTAVYYCARAPRYDEHYEAFDVWGQGTMVTVSS
chain 2: SYVLTQPPSVSVAPGQTARITCGGNNLGSKSVHWYQQKPGQAPVLVVYDDSDRPSWIPERFSGSNSGNTATLTISRGEAGDEADYYCQVWDSSSDHVVFGGGTKLTVL
As to B4, the Kd worked out at 777 nM.

B5: unnamed (protein)
chain 1: QMQLVESGGGVVQPGRSLRLSCAASGFTFSTFAMHWVRQAPGKGLEWVAVIWYDGSNKHYADSVKGRFTITRDNSKNTLNLQMNSLRAEDTAVYYCARAPRYDDLYEAFDVWGQGTMVTVSS
chain 2: SYVLTQPPSVSVAPGQTARITCGGNNLGSKSVHWYQQKPGQAPVLVVYDDSDRPSWIPERFSGSNSGNTATLTISRGEAGDEADYYCQVWDSSSDHVVFGGGTKLTVL
B5: the Kd came to 188 nM.

B6: unnamed (protein)
chain 1: QMQLVESGGGVVQPGRSLRLSCAASGFTFSTFAMHWVRQAPGKGLEWVAVIWYDGSNKHYADSVKGRFTITRDNSKNTLNLQMNSLRAEDTAVYYCARSPRYDDYLEAFDVWGQGTMVTVSS
chain 2: SYVLTQPPSVSVAPGQTARITCGGNNLGSKSVHWYQQKPGQAPVLVVYDDSDRPSWIPERFSGSNSGNTATLTISRGEAGDEADYYCQVWDSSSDHVVFGGGTKLTVL
B6 came in with a Kd of 80.5 nM.

B7: unnamed (protein)
chain 1: QMQLVESGGGVVQPGRSLRLSCAASGFTFSTFAMHWVRQAPGKGLEWVAVIWYDGSNKHYADSVKGRFTITRDNSKNTLNLQMNSLRAEDTAVYYCARAPRYDDDYEAFDVWGQGTMVTVSS
chain 2: SYVLTQPPSVSVAPGQTARITCGGNNLGSKSVHWYQQKPGQAPVLVVYDDSDRPSWIPERFSGSNSGNTATLTISRGEAGDEADYYCQVWDSSSDHVVFGGGTKLTVL
Take B7: the Kd came to 112 nM.

B8: unnamed (protein)
chain 1: QMQLVESGGGVVQPGRSLRLSCAASGFTFSTFAMHWVRQAPGKGLEWVAVIWYDGSNKHYADSVKGRFTITRDNSKNTLNLQMNSLRAEDTAVYYCARAPRYDEYWEAFDVWGQGTMVTVSS
chain 2: SYVLTQPPSVSVAPGQTARITCGGNNLGSKSVHWYQQKPGQAPVLVVYDDSDRPSWIPERFSGSNSGNTATLTISRGEAGDEADYYCQVWDSSSDHVVFGGGTKLTVL
On to B8, for which the Kd was 764 nM.

B9: unnamed (protein)
chain 1: QMQLVESGGGVVQPGRSLRLSCAASGFTFSTFAMHWVRQAPGKGLEWVAVIWYDGSNKHYADSVKGRFTITRDNSKNTLNLQMNSLRAEDTAVYYCARAPRYYEYYEAFDVWGQGTMVTVSS
chain 2: SYVLTQPPSVSVAPGQTARITCGGNNLGSKSVHWYQQKPGQAPVLVVYDDSDRPSWIPERFSGSNSGNTATLTISRGEAGDEADYYCQVWDSSSDHVVFGGGTKLTVL
B9 returned a Kd of 106 nM.

B10: unnamed (protein)
chain 1: QMQLVESGGGVVQPGRSLRLSCAASGFTFSTFAMHWVRQAPGKGLEWVAVIWYDGSNKHYADSVKGRFTITRDNSKNTLNLQMNSLRAEDTAVYYCARSPRYYDYYEAFDVWGQGTMVTVSS
chain 2: SYVLTQPPSVSVAPGQTARITCGGNNLGSKSVHWYQQKPGQAPVLVVYDDSDRPSWIPERFSGSNSGNTATLTISRGEAGDEADYYCQVWDSSSDHVVFGGGTKLTVL
In the case of B10, the Kd stood at 41.8 nM.
